Experimental findings from publication PMC3136518, “Single-Molecule Fluorescence Polarization Study of Conformational Change in Archaeal Group II Chaperonin” (PLoS ONE, 2011) are described below.

The series concerns the molecule itself. Nature of the series: rotary-shadowing electron microscopy; chaperonin (50 µg/mL) directly immobilised on plasma-cleaned coverslip, washed with HKM buffer [25 mM HEPES-KOH (pH 7.4), 100 mM KCl, 5 mM MgCl2] and 50% glycerol, shadowed at 5° with platinum and carbon; coverslip without chaperonin as negative control.

B1: αD263C/Q271C/C366S-His, the double-cysteine mutant of Thermococcus sp. strain KS-1 (T. KS-1) α chaperonin with internal hexahistidine tags (complex, UniProt P61112 1-548, looked up)
chain: MAQLSGQPVVILPEGTQRYVGRDAQRLNILAARIIAETVRTTLGPKGMDKMLVDSLGDIVVTNDGATILDKIDLQHPAAKMMVEVAKTQDKEAGDGTTTAVVIAGELLRKAEELLDQNIHPSIIIKGYALAAEKAQEILDEIAIRVDPDDEETLLKIAATSITGKNAESHKELLAKLAVEAVKQVAEKKDGKYVVDLDNIKFEKKAGEGVEESELVRGVVIDKEVVHPRMPKRVENAKIALINEALEVKKTETDAKINITSPCQLMSFLECEEKMLKDMVDHIAQTGANVVFVQKGIDDLAQHYLAKYGIMAVRRVKKSDMEKLAKATGAKIVTNVKDLTPEDLGYAEVVEERKLAGENMIFVEGSKNPKAVTILIRGGTEHVIDEVERALEDAVKVVKDVMEDGAVLPAGGAPEIELAIRLDEYAKQVGGKEALAIENFADALKIIPKTLAENAGLDTVEMLVKVISEHKNRGLGIGIDVFEGKPADMLEKGIIEPLRVKKQAIKSASEAAIMILRIDDVIAAKATKPEGGQGGGMPGGMGGMDMGM
notes: Group II chaperonin (thermosome) α subunit of Thermococcus sp. strain KS-1, amino acids 1-548, the entire α subunit amplified from plasmid pK1Eα2; hexa-histidine inserted between Val146 and Asp147; Homo-oligomeric double ring; The results call the sample of the electron microscopy BSR-CPN (cysteines 263 and 271 cross-linked by BSR, about 0.3 dye per hexadecamer); the methods name the unlabelled …
Turning to B1, the binding result is recorded as “binds”.
